Sequences and labels used below:
B1: HpARI_CCP1/2 (HpARI with CCP3 truncated) (domain or fragment)
chain: AGQRCRFTDVERDKGYTGMLLKGRLRKTAGNGRTVELICGRGNHNYTCESGVLKESSPRQARCGCKGILEMLFDMPKEERPSPMYDSVTYDPTPNTPTTVGKDGIWNGVDYRNGSTVKPYCDTGPVINGSSKAVCVSGKWVPTLGVCPK
modifications: biotinylated with EZ-Link Sulfo-NHS-Biotin where immobilised for SPR
B2: mouse Interleukin 33 (residues 112-270) (ligand)
chain: SIQGTSLLTQSPASLSTYNDQSVSFVLENGCYVINVDDSGKDQEQDQVLLRYYESPCPASQSGDGVDGKKVMVNMSPIKDTDIWLHANDKDYSVELQRGDVSPPEQAFFVLHKKSSDFVSFECKNLPGTYIGVKDNQLALVEEKDESCNNIMFKLSKI
B3: HpARI-LD (full-length HpARI with residues 180-188 of the CCP3 loop deleted) (natural protein)
chain: AGQRCRFTDVERDKGYTGMLLKGRLRKTAGNGRTVELICGRGNHNYTCESGVLKESSPRQARCGCKGILEMLFDMPKEERPSPMYDSVTYDPTPNTPTTVGKDGIWNGVDYRNGSTVKPYCDTGPVINGSSKAVCVSGKWVPTLGVCPKMCSIGSLKENGKFVDVTATTKGDELNPPPRKVDKDKVQHGVKVVALCKAEDSTTAAEGVQEFECDNGKWKPEPVPCP
modifications: biotinylated with EZ-Link Sulfo-NHS-Biotin where immobilised for SPR
B4: Heligmosomoides polygyrus Alarmin Release Inhibitor (HpARI), full-length (natural protein)
chain: AGQRCRFTDVERDKGYTGMLLKGRLRKTAGNGRTVELICGRGNHNYTCESGVLKESSPRQARCGCKGILEMLFDMPKEERPSPMYDSVTYDPTPNTPTTVGKDGIWNGVDYRNGSTVKPYCDTGPVINGSSKAVCVSGKWVPTLGVCPKMCSIGSLKENGKFVDVTATTKGDELNPPPREQTLIPIVRKVDKDKVQHGVKVVALCKAEDSTTAAEGVQEFECDNGKWKPEPVPCP
modifications: biotinylated with EZ-Link Sulfo-NHS-Biotin where immobilised for SPR

What all share (assay): SPR
Experiment [1] concerns the target B2.
In experiment [2] the target is T1, HpARI-N152 (HpARI with an N-linked glycan inserted at residue 152, interface A) (Heligmosomoides polygyrus bakeri, N-linked glycan at residue 152).
Experiment [3] addresses T1, HpARI-N152 (HpARI with an N-linked …). This is another data set of the same source.
The target in experiment [4] is T2, HpARI point mutant of residue W107 (Heligmosomoides polygyrus bakeri, biotinylated with EZ-Link Sulfo-NHS-Biotin where immobilised for SPR).
For experiment [5], the target named is T3, HpARI point mutant of residue Y112 (Heligmosomoides polygyrus bakeri, biotinylated with EZ-Link Sulfo-NHS-Biotin where immobilised for SPR).
The target of experiment [6] is T4, HpARI point mutant of residue E70 (Heligmosomoides polygyrus bakeri, biotinylated with EZ-Link Sulfo-NHS-Biotin where immobilised for SPR).
Experiment [7] concerns the target T2, HpARI point mutant of residue W107. This is another data set of the same source.
Experiment [8] addresses T3, HpARI point mutant of residue Y112. The source holds these as a separate data set.
The target in experiment [9] is T4, HpARI point mutant of residue E70. This is another data set of the same source.
In experiment [10] the target is B2.

Read-outs that look alike come from different tables or passages of the source.

For the molecule B1, the koff in experiment [1] was 0.00201 s⁻¹.
Take B2: the Kd in experiment [2] is 0.0474 nM; in experiment [4], ~1.2 nM; in [5] it was ~0.5 nM; in [6], ~0.3 nM; in experiment [7], 1.18 nM; in [8], 0.528 nM. In experiment [9], this molecule returned a Kd of 0.31 nM. Moreover, the koff was 6.12e-05 s⁻¹ in [3], 0.000162 s⁻¹ in [7], 9.33e-05 s⁻¹ in experiment [8] and 9.89e-05 s⁻¹ in experiment [9].
B3: in experiment [10], the Kd amounted to 4.53 nM. Moreover, the koff in experiment [1] stood at 0.00296 s⁻¹.
For B4, the off-rate (koff) in [1] was determined as 4.51e-05 s⁻¹.
